Assay results reported in US20220048967A1 (published 2022).
Numbered stars: 1 amine (or outer) side, 2 acyl side, 3 side chain; on linkers, the order of the positions; unused ones are H or OH. Square brackets hold non-standard residues; d marks the D form. Side chains are listed from the residue outwards. Ends that are not written are not given here. * marks the point of attachment. C20 diacid = O=C(O)CCCCCCCCCCCCCCCCCCC(=O)*; γGlu = O=C(O)[C@H](CCC(=O)[*:2])N[*:1]; αMeL = CC(C)C[C@](C)(N)C(=O)O; Dap = NC[C@H](N)C(=O)O; AEEA = NCCOCCOCC(=O)O; Aib = CC(C)(N)C(=O)O

B1: Example 351 (peptide)
peptide: [dY][Aib]EGTFTSDYSI[αMeL]LD[Dap]K([AEEA-AEEA-γGlu-C20 diacid])AQ[Aib]EFIEYLIAGGPSSGAPPPS-NH2
modifications: N-terminus assumed
SMILES: CC[C@H](C)[C@H](NC(=O)[C@H](CC(C)C)NC(=O)[C@H](Cc1ccc(O)cc1)NC(=O)[C@H](CCC(=O)O)NC(=O)[C@@H](NC(=O)[C@H](Cc1ccccc1)NC(=O)[C@H](CCC(=O)O)NC(=O)C(C)(C)NC(=O)[C@H](CCC(N)=O)NC(=O)[C@H](C)NC(=O)[C@H](CCCCNC(=O)COCCOCCNC(=O)COCCOCCNC(=O)CC[C@H](NC(=O)CCCCCCCCCCCCCCCCCCC(=O)O)C(=O)O)NC(=O)[C@H](CN)NC(=O)[C@H](CC(=O)O)NC(=O)[C@H](CC(C)C)NC(=O)[C@](C)(CC(C)C)NC(=O)[C@@H](NC(=O)[C@H](CO)NC(=O)[C@H](Cc1ccc(O)cc1)NC(=O)[C@H](CC(=O)O)NC(=O)[C@H](CO)NC(=O)[C@@H](NC(=O)[C@H](Cc1ccccc1)NC(=O)[C@@H](NC(=O)CNC(=O)[C@H](CCC(=O)O)NC(=O)C(C)(C)NC(=O)[C@H](N)Cc1ccc(O)cc1)[C@@H](C)O)[C@@H](C)O)[C@@H](C)CC)[C@@H](C)CC)C(=O)N[C@@H](C)C(=O)NCC(=O)NCC(=O)N1CCC[C@H]1C(=O)N[C@@H](CO)C(=O)N[C@@H](CO)C(=O)NCC(=O)N[C@@H](C)C(=O)N1CCC[C@H]1C(=O)N1CCC[C@H]1C(=O)N1CCC[C@H]1C(=O)N[C@@H](CO)C(N)=O
B2: Example 360 (peptide)
peptide: XXEGTFTSDYSIXLDXKAQXAFVEYLIEGGPSSGAPPPS
modifications: D-Tyr1; Aib2; αMeL13; Orn16; K17 conjugated to (2-[2-(2-Amino-ethoxy)-ethoxy]-acetyl)2-(γ-Glu)-CO-(CH2)18-CO2H; Aib20; C-terminal amide
B3: Example 369 (peptide)
peptide: XXEGTFTSDYSIXLDXKAQXDFIEYLIAGGPSSGAPPPS
modifications: D-Tyr1, Aib2, αMeL13, Orn16, K17 conjugated to (2-[2-(2-Amino-ethoxy)-ethoxy]-acetyl)2-(γ-Glu)-CO-(CH2)18-CO2H, Aib20, C-terminal amide (NH2)
B4: Example 359 (peptide)
peptide: XXEGTFTSDYSIXLDXKAQXEFVEYLIAGGPSSGAPPPS
modifications: D-Tyr1, Aib2, αMeL13, Orn16, K17 conjugated to (2-[2-(2-Amino-ethoxy)-ethoxy]-acetyl)2-(γ-Glu)-CO-(CH2)18-CO2H, Aib20, C-terminal amide (NH2)
B5: Example 377 (peptide)
peptide: XXEGTFTSDYSIXLDXKAQXAFIEXLIAGGPSSGAPPPS
modifications: D-Tyr1, Aib2, αMeL13, Orn16, K17 conjugated to (2-[2-(2-Amino-ethoxy)-ethoxy]-acetyl)2-(γ-Glu)-CO-(CH2)16-CO2H, Aib20, αMeY25, C-terminal amide (NH2)
B6: Example 293 (peptide)
peptide: XXEGTFTSDYSIXLDXKAQXEFIEXLIAGGPSSGAPPPS
modifications: D-Tyr1, Aib2, αMeL13, Orn16, K17 conjugated to (2-[2-(2-Amino-ethoxy)-ethoxy]-acetyl)2-(γ-Glu)-CO-(CH2)18-CO2H, Aib20, αMeY25, C-terminal amide (NH2)
B7: Example 365 (peptide)
peptide: XXEGTFTSDYSIXLDKKAQXAFIEXLIAGGPSSGAPPPS
modifications: D-Tyr1, Aib2, αMeL13, K17 conjugated to (2-[2-(2-Amino-ethoxy)-ethoxy]-acetyl)2-(γ-Glu)-CO-(CH2)18-CO2H, Aib20, αMeY25, C-terminal amide (NH2)
B8: Example 358 (peptide)
peptide: XXEGTFTSDYSIXLDXKAQXAFVEYLIAGGPSSGAPPPS
modifications: D-Tyr1, Aib2, αMeL13, Orn16, K17 conjugated to (2-[2-(2-Amino-ethoxy)-ethoxy]-acetyl)2-(γ-Glu)-CO-(CH2)18-CO2H, Aib20, C-terminal amide (NH2)
B9: Example 291 (peptide)
peptide: XXEGTFTSDYSIXLDXKAQXAFIXYLIAGGPSSGAPPPS
modifications: D-Tyr1, Aib2, αMeL13, Orn16, K17 conjugated to (2-[2-(2-Amino-ethoxy)-ethoxy]-acetyl)2-(γ-Glu)-CO-(CH2)18-CO2H, Aib20, D-Glu24, C-terminal amide (NH2)
B10: Example 363 (peptide)
peptide: XXEGTFTSDYSIXLDXKAQXAFIXYLIAGGPSSGAPPPS
modifications: D-Tyr1, Aib2, αMeL13, Orn16, K17 conjugated to (2-[2-(2-Amino-ethoxy)-ethoxy]-acetyl)2-(γ-Glu)-CO-(CH2)16-CO2H, Aib20, D-Glu24, C-terminal amide (NH2)
B11: Example 379 (peptide)
peptide: XXEGTFTSDYSIXLDKKAQXEFIEXLIEGGPSSGAPPPS
modifications: D-Tyr1, Aib2, αMeL13, K17 conjugated to (2-[2-(2-Amino-ethoxy)-ethoxy]-acetyl)2-(γ-Glu)-CO-(CH2)18-CO2H, Aib20, αMeY25, C-terminal amide (NH2)
B12: Example 381 (peptide)
peptide: XXEGTFTSDYSIXLDEKAQXAFIEXLIAGGPSSGAPPPS
modifications: D-Tyr1, Aib2, αMeL13, K17 conjugated to (2-[2-(2-Amino-ethoxy)-ethoxy]-acetyl)2-(γ-Glu)-CO-(CH2)18-CO2H, Aib20, αMeY25, C-terminal amide (NH2)
B13: Example 378 (peptide)
peptide: XXEGTFTSDYSIXLDKKAQXEFIEYLIAGGPSSGAPPPS
modifications: D-Tyr1, Aib2, αMeL13, K17 conjugated to (2-[2-(2-Amino-ethoxy)-ethoxy]-acetyl)-(γ-Glu)-CO-(CH2)18-CO2H, Aib20, C-terminal amide (NH2)
B14: Example 354 (peptide)
peptide: XXEGTFTSDYSIXLDXKAQXEFIXYLIAGGPSSGAPPPS
modifications: D-Tyr1, Aib2, αMeL13, Orn16, K17 conjugated to (2-[2-(2-Amino-ethoxy)-ethoxy]-acetyl)2-(γ-Glu)-CO-(CH2)18-CO2H, Aib20, D-Glu24, C-terminal amide (NH2)

How the values were obtained:
Assay in all cases: cell-based or functional assay
[1] = molecular target: Pro-Link-tagged Human GLP-1R (human, UniProt P43220 24-463)
human GLP-1 receptor = human GLP-1 receptor (human, UniProt P43220 24-463)
[2] = molecular target: T1, human gastric inhibitory peptide receptor (GIPR) (human, UniProt P48546 22-466)
T1 sequence (looked up): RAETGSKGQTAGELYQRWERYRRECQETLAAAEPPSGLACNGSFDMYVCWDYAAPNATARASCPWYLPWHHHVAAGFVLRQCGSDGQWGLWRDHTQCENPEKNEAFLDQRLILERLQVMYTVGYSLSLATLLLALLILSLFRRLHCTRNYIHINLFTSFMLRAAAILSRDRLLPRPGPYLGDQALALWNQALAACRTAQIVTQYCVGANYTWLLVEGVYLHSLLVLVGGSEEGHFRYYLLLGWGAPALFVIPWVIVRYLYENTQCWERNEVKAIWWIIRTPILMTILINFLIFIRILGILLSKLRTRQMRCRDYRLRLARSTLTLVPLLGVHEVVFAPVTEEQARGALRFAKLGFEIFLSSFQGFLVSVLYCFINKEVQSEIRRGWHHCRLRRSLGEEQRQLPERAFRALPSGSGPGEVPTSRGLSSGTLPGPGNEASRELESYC

[3] = molecular target: human GLP-1 receptor (GLP-1R) (human, UniProt P43220 24-463)

| Binder | hGLP1R B-Arrestin2 % Top [1] [%] | hGLP1R B-Arrestin2 Rel EC50 [1] [nM] | hGLP1R GTPgS % Top (human GLP-1 receptor) [%] | hGLP1R GTPgS Rel EC50 (human GLP-1 receptor) [nM] | hGIPR cAMP EC50 ratio [2] [ratio] | hGIPR cAMP Rel EC50 [2] [nM] | hGLP1R cAMP EC50 ratio [3] [ratio] | hGLP1R cAMP Rel EC50 [3] [nM] |
| --- | --- | --- | --- | --- | --- | --- | --- | --- |
| B1 | 23.5 | 19.6 | 66.5 | 0.563 | – | – | – | – |
| B2 | – | – | – | – | 0.53 | 0.197 | 0.171 | 0.145 |
| B3 | 19.9 | 41.4 | 58.8 | 0.381 | – | – | – | – |
| B4 | 28.4 | 84.1 | 69.7 | 0.496 | – | – | – | – |
| B5 | 16.7 | 5.32 | 68.4 | 0.356 | – | – | – | – |
| B6 | 29.5 | 7.19 | 70.6 | 0.368 | – | – | – | – |
| B7 | 20.8 | 7.03 | 66.9 | 0.464 | – | – | – | – |
| B8 | 21.4 | 9.38 | 72.3 | 0.414 | – | – | – | – |
| B9 | – | > 10000 | 65 | 0.466 | – | – | – | – |
| B10 | 22.1 | 135 | 69.6 | 0.943 | – | – | – | – |
| B11 | 31.9 | 18.1 | 71 | 0.239 | – | – | – | – |
| B12 | 25.8 | 15.5 | 73.6 | 0.273 | – | – | – | – |
| B13 | – | > 10200 | 68.6 | 0.359 | – | – | – | – |
| B14 | 22.7 | 255 | 53.3 | 0.967 | – | – | – | – |
